T1: SARS-CoV nsp9 (SARS-CoV), P0C6X7
T1 chain: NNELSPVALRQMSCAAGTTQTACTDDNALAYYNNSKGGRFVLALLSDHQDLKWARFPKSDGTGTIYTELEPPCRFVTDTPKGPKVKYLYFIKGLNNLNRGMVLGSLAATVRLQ

B1: SARS-CoV nsp9, P0C6X7 (natural protein)
chain: T1 chain
B2: SARS-CoV main protease M^pro with authentic ends (enzyme)
chain: SGFRKMAFPSGKVEGCMVQVTCGTTTLNGLWLDDTVYCPRHVICTAEDMLNPNYEDLLIRKSNHSFLVQAGNVQLRVIGHSMQNCLLRLKVDTSNPKTPKYKFVRIQPGQTFSVLACYNGSPSGVYQCAMRPNHTIKGSFLNGSCGSVGFNIDYDCVSFCYMHHMELPTGVHAGTDLEGKFYGPFVDRQTAQAAGTDTTITLNVLAWLYAAVINGDRWFLNRFTTTLNDFNLVAMKYNYEPLTQDHVDILGPLSAQTGIAVLDMCAALKELLQNGMNGRTILGSTILEDEFTPFDVVRQCSGVTFQ
notes: also called 3CL^pro; nsp5

What was measured:
[1] = target: T1, SARS-CoV nsp9 (SARS-CoV), P0C6X7; assay: native MS; conditions: remark: other sources report otherwise
native MS = target: the molecule itself; assay: native MS

Binder | mass fraction of dimers [1] [%] | mass fraction of monomers [1] [%] | stoichiometry N [1] | stoichiometry N (native MS)
B1 | 25 | 75 | 2 | 
B2 |  |  |  | 2

From article PMC7078746, “Processing of the SARS-CoV pp1a/ab nsp7–10 region” (Biochemical Journal, 2020)
